Assay results: patent US20220112303A1 (ICHILOV TECH, published 2022)

Columns and labels:
CD24 antigen = molecular target: T1, CD24 antigen (UniProt P25063 27-59); test: Biacore SPR
T1 chain: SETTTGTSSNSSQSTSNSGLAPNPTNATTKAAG

[1] = molecular target: T2, CD24 on human cells (HT29, colo257, Panc-1, sh-sy5y, PBMCs) (human, UniProt P25063 27-59); test: whole cell ELISA and flow cytometry on HT29 cells (HCT116 as low-CD24 control)
T2 construct: whole, on cells; also called CD24-positive cells
T2 chain (looked up): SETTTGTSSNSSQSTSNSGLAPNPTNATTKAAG

Kd (CD24 antigen): 18 nM
binding result [1]: binds
B1: humanized matured NS17 anti-CD24 antibody (antibody, V domains shown)
VH: QVHLQESGPGLVKPSQTLSLTCAVSGYSISSGYTWHWIRQPPGKTVEWIGYIQYTGSTRYNPALRGRLTMSVDTSKNQFSLKLISVTAADTGVYFCARGTTASFDYWGQGTTVTVSS
VL: DIVMTQSPDSLNVSLGERATIRCRSSQSLLYSSDQKNYLTWYQQKPGQPPKLLISWASPRASGVPDRFSGSGSGTDFTLTISSLQAEDVGVYYCQQYFIYPLTFGVGTKLELK
notes: Tested as whole IgG with human CH1-CH3 and Ck, expressed from the pcDNA4-PCMV-TetO2-IgL-PCMV-TetO2-IgH vector; also called matured antibody
